{"source": "patent US20170114146A1", "about": "(Hoffmann-La Roche, published 2017)", "binders": {"B1": {"name": "CD33 CD3 TCB molecule B (\"2+1 IgG CrossFab, inverted\" with charge modifications, CD33 binders based on anti-CD33 antibody 2) (bispecific antibody)", "chain 1": "EVQLLESGGGLVQPGGSLRLSCAASGFTFSTYAMNWVRQAPGKGLEWVSRIRSKYNNYATYYADSVKGRFTISRDDSKNTLYLQMNSLRAEDTAVYYCVRHGNFGNSYVSWFAYWGQGTLVTVSSASVAAPSVFIFPPSDEQLKSGTASVVCLLNNFYPREAKVQWKVDNALQSGNSQESVTEQDSKDSTYSLSSTLTLSKADYEKHKVYACEVTHQGLSSPVTKSFNRGEC", "chain 2": "EVQLVQSGAEVKKPGSSVKVSCKASGYTITDSNIHWVRQAPGQSLEWIGYIYPYNGGTDYNQKFKNRATLTVDNPTNTAYMELSSLRSEDTAFYYCVNGNPWLAYWGQGTLVTVSSASTKGPSVFPLAPSSKSTSGGTAALGCLVEDYFPEPVTVSWNSGALTSGVHTFPAVLQSSGLYSLSSVVTVPSSSLGTQTYICNVNHKPSNTKVDEKVEPKSCDKTHTCPPCPAPEAAGGPSVFLFPPKPKDTLMISRTPEVTCVVVDVSHEDPEVKFNWYVDGVEVHNAKTKPREEQYNSTYRVVSVLTVLHQDWLNGKEYKCKVSNKALGAPIEKTISKAKGQPREPQVCTLPPSRDELTKNQVSLSCAVKGFYPSDIAVEWESNGQPENNYKTTPPVLDSDGSFFLVSKLTVDKSRWQQGNVFSCSVMHEALHNHYTQKSLSLSP", "chain 3": "not shown", "chain 4": "DIQLTQSPSTLSASVGDRVTITCRASESLDNYGIRFLTWFQQKPGKAPKLLMYAASNQGSGVPSRFSGSGSGTEFTLTISSLQPDDFATYYCQQTKEVPWSFGQGTKVEVKRTVAAPSVFIFPPSDRKLKSGTASVVCLLNNFYPREAKVQWKVDNALQSGNSQESVTEQDSKDSTYSLSSTLTLSKADYEKHKVYACEVTHQGLSSPVTKSFNRGEC"}, "B2": {"name": "CD33 CD3 TCB molecule A (\"2+1 IgG CrossFab, inverted\" with charge modifications, CD33 binders based on anti-CD33 antibody 1) (bispecific antibody)", "chain 1": "QVQLVQSGAEVKKPGSSVKVSCKASGYTFTDYNMHWVRQAPGQGLEWIGYIYPYNGGTGYNQKFKSKATITADESTNTAYMELSSLRSEDTAVYYCARGRPAMDYWGQGTLVTVSSASTKGPSVFPLAPSSKSTSGGTAALGCLVEDYFPEPVTVSWNSGALTSGVHTFPAVLQSSGLYSLSSVVTVPSSSLGTQTYICNVNHKPSNTKVDEKVEPKSCDKTHTCPPCPAPEAAGGPSVFLFPPKPKDTLMISRTPEVTCVVVDVSHEDPEVKFNWYVDGVEVHNAKTKPREEQYNSTYRVVSVLTVLHQDWLNGKEYKCKVSNKALGAPIEKTISKAKGQPREPQVCTLPPSRDELTKNQVSLSCAVKGFYPSDIAVEWESNGQPENNYKTTPPVLDSDGSFFLVSKLTVDKSRWQQGNVFSCSVMHEALHNHYTQKSLSLSP", "chain 2": "not shown", "chain 3": "B1 chain 1", "chain 4": "DIQMTQSPSSLSASVGDRVTITCRASESVDNYGISFMNWFQQKPGKAPKLLIYAASNQGSGVPSRFSGSGSGTDFTLTISSLQPDDFATYYCQQSKEVPWTFGQGTKVEIKRTVAAPSVFIFPPSDRKLKSGTASVVCLLNNFYPREAKVQWKVDNALQSGNSQESVTEQDSKDSTYSLSSTLTLSKADYEKHKVYACEVTHQGLSSPVTKSFNRGEC"}}, "assay_in_all_cases": "cell-based or functional assay", "key": {"[1]": {"molecular_target": "T1, CD33 (myeloid cell surface antigen CD33) on human AML cell lines HL-60 and HEL (human, UniProt P20138 18-364)", "T1 sequence (P20138 18-364)": "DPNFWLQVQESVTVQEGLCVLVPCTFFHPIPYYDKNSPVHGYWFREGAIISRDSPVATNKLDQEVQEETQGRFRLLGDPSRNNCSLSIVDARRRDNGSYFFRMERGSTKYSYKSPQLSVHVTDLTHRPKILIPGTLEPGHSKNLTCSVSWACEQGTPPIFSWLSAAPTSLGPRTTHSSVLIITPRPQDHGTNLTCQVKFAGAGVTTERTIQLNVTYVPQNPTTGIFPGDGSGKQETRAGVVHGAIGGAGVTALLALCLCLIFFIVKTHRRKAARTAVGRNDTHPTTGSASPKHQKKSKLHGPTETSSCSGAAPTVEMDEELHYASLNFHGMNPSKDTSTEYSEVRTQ"}, "[2]": {"molecular_target": "CD3 antigen expressed on Jurkat-NFAT reporter cells (human, UniProt P07766 23-207)", "sequence (P07766 23-207 limits assumed)": "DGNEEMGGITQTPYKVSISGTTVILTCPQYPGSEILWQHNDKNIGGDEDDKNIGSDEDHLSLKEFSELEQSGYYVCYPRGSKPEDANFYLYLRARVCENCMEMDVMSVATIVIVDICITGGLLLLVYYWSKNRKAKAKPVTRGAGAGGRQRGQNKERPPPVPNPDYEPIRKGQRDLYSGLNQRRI"}, "[3]": {"molecular_target": "T1, CD33 (myeloid cell surface antigen …)", "remark": "listed apart in the source"}}}
{"binder": "B1", "values": [{"measurement": "EC50 [pM] 42 h, T-cell mediated killing of HL-60 tumor cells (LDH release, human pan T cells, E:T 5:1)", "setting": "[1]", "result": 18.5, "unit": "pM"}, {"measurement": "EC50, activation of Jurkat-NFAT reporter cells via CD3 (luminescence, 5 h, HL-60 target cells, E:T 2.5:1)", "setting": "[2]", "result": 0.0043, "unit": "nM"}, {"measurement": "EC50, activation of Jurkat-NFAT reporter cells via CD3 (luminescence, 5 h, HL-60 target cells, E:T 2.5:1)", "setting": "[3]", "result": 0.0043, "unit": "nM"}]}
{"binder": "B2", "values": [{"measurement": "EC50 [pM] 42 h, T-cell mediated killing of HL-60 tumor cells (LDH release, human pan T cells, E:T 5:1)", "setting": "[1]", "result": 19.8, "unit": "pM"}, {"measurement": "EC50, activation of Jurkat-NFAT reporter cells via CD3 (luminescence, 5 h, HL-60 target cells, E:T 2.5:1)", "setting": "[2]", "result": 0.0794, "unit": "nM"}, {"measurement": "EC50, activation of Jurkat-NFAT reporter cells via CD3 (luminescence, 5 h, HL-60 target cells, E:T 2.5:1)", "setting": "[3]", "result": 0.0794, "unit": "nM"}]}
